Measurements: the supplement of paper PMC6379048

Columns and labels:
HNRNPAB = HNRNPAB (UniProt Q99729); assay: Kd (EC50 corrected by depletion factor)
Procedure, shortened: (§1)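 To obtain EC50, data were fitted with a four-parameter log-logistic model; Kd was then EC50 multiplied by a protein-dependent depletion factor. Beforehand, free RNA oligos (0 nM to 30 μM) were pre-incubated with HEK293-FT lysate (2.5 mg protein/well) for 1 h at 4°C. The lysate then spent 30 min at 4°C with the same 5′-amino-C6 oligos coupled to NHS-Sepharose beads, and bound proteins were quantified by label-free LC-MS/MS, normalised to the control.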

SRSF3 = target: T1, SRSF3 (UniProt P84103); assay: Kd (EC50 corrected by depletion factor)
T1 sequence: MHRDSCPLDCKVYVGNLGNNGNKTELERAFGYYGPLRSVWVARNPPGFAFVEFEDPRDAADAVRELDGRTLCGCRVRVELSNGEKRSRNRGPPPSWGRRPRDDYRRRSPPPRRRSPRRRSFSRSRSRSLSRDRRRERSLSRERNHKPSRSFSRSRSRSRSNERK
Procedure, shortened: as §1

HNRNPD = target: T2, HNRNPD (UniProt Q14103); assay: Kd (EC50 corrected by depletion factor)
T2 sequence: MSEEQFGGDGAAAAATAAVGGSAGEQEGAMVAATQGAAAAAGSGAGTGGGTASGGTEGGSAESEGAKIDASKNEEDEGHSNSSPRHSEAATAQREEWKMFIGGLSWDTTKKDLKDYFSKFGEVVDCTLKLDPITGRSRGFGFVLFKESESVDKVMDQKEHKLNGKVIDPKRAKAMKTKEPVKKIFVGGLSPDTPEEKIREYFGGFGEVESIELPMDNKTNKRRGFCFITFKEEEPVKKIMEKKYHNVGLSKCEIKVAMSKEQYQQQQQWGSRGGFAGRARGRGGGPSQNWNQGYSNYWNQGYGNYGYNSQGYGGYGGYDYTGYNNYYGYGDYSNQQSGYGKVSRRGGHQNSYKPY
Procedure, shortened: as §1

DHX15 = DHX15 (UniProt O43143); assay: EC50 of free RNA motif oligo competing protein binding to immobilised probe
DHX15, sequence (O43143 whole entry): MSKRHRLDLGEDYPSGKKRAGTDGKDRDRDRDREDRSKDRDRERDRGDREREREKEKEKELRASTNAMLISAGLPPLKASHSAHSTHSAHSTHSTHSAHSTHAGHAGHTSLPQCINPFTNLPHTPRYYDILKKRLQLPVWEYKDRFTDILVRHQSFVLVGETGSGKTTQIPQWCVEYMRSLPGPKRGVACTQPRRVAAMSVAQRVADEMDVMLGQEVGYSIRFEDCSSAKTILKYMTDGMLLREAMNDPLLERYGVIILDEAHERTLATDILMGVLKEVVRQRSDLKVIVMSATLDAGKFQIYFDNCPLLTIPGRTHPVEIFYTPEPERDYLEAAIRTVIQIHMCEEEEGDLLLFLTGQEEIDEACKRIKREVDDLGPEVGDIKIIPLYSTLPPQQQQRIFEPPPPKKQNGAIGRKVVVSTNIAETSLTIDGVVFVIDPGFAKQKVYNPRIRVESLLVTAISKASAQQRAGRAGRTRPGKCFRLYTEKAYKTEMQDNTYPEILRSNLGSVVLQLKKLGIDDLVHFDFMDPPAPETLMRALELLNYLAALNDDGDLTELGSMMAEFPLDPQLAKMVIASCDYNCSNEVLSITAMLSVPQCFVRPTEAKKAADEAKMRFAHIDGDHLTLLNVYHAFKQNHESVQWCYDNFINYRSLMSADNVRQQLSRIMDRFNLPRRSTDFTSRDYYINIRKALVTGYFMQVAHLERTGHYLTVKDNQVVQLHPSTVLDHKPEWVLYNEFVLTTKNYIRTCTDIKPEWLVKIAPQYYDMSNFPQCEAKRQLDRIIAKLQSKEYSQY
Procedure, shortened: as §1

CELF1 = target: T3, CELF1 (UniProt Q92879); assay: as above
T3 sequence: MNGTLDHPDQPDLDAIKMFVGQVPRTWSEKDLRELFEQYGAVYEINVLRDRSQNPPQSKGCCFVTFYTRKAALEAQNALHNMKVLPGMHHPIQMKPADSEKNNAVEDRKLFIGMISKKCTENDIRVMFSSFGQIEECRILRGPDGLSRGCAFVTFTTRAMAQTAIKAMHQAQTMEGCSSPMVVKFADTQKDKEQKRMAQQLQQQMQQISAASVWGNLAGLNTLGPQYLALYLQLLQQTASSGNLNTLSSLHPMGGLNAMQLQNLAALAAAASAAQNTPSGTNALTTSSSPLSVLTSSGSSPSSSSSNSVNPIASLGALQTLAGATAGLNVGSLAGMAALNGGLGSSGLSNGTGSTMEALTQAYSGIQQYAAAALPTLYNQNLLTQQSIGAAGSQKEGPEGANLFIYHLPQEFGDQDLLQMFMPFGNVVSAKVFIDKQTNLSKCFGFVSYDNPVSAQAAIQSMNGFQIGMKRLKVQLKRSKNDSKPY
Procedure, shortened: as §1

SKIV2L2 = target: T4, SKIV2L2 (UniProt P42285); assay: as above
T4 sequence: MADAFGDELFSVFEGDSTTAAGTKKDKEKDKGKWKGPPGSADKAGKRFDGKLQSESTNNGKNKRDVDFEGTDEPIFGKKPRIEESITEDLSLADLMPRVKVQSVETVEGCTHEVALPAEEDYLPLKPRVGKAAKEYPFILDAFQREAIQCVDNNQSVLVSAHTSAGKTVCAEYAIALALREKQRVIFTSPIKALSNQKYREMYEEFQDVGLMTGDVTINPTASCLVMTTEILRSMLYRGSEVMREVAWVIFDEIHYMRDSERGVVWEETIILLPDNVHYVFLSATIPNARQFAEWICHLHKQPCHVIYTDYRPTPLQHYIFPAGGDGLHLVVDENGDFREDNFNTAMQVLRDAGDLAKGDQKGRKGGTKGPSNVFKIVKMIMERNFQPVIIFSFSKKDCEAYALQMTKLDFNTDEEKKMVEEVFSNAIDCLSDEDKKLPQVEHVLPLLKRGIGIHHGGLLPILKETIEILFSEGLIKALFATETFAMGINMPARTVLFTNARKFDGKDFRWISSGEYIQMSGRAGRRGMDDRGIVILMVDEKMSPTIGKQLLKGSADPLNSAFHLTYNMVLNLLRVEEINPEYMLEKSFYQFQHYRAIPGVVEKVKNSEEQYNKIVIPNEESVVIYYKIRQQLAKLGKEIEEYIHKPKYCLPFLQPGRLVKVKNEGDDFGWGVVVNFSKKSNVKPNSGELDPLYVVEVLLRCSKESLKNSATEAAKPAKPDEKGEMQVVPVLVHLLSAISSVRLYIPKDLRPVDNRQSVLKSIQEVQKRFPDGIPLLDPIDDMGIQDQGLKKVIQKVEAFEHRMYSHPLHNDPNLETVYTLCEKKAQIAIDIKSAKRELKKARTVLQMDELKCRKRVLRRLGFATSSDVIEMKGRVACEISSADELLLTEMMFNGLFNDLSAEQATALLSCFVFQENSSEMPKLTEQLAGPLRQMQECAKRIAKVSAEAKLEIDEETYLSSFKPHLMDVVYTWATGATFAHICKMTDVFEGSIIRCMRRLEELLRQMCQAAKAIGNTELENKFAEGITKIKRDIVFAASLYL
Procedure, shortened: as §1

PHAX = PHAX (UniProt Q9H814); assay: as above
PHAX, sequence (Q9H814 whole entry): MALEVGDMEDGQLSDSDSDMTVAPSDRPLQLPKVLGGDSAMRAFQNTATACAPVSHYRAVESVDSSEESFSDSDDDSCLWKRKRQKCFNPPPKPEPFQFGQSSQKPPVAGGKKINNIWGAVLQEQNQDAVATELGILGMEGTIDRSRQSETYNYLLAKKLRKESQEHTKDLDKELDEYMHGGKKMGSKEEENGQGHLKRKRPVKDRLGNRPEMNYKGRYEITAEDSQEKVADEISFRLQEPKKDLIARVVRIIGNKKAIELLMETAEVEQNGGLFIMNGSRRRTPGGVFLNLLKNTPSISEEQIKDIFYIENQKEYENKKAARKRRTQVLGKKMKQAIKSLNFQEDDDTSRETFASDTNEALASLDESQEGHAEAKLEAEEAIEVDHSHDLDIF
Procedure, shortened: as §1

HNRNPAB, sequence (Q99729 whole entry): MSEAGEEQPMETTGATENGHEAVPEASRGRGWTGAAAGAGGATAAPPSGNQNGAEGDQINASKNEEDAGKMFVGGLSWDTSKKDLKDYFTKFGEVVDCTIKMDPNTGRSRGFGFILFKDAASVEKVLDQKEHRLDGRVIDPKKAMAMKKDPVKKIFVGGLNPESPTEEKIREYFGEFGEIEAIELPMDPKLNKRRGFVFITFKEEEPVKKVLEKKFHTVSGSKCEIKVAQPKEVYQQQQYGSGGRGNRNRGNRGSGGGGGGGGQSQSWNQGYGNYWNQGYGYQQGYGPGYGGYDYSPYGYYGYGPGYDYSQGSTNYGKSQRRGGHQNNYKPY

Sequence	Kd (HNRNPAB) [nM]	Kd (SRSF3) [nM]	Kd (HNRNPD) [nM]	EC50 (DHX15) [nM]	EC50 (CELF1) [nM]	EC50 (SKIV2L2) [nM]	EC50 (PHAX) [nM]
AAUAAA	464	281	764	2150	667	2880	10700
CUGUCCU	–	790	–	757	6720	3470	1350
UAUUUAU	2300	–	583	576	555	619	9100
